To fix the notation:
B1: A105C (designed binder)
chain: MTLQELLREEALRRAEAEAFRYALELLAEKFPEQKEYLLDLAEEIESQIRSLSGVDVEDVRKFLDKEWAWVKELLAEHPAELAEVEAARAARLAELRAEVEAKVCA
B2: L3F (designed binder)
chain: MTFQELLREEALRRAEAEAFRYALELLAEKFPEQKEYLLDLAEEIESQIRSLSGVDVEDVRKFLDKEWAWVKELLAEHPAELAEVEAARAARLAELRAEVEAKVAA
B3: D65T (designed binder)
chain: MTLQELLREEALRRAEAEAFRYALELLAEKFPEQKEYLLDLAEEIESQIRSLSGVDVEDVRKFLTKEWAWVKELLAEHPAELAEVEAARAARLAELRAEVEAKVAA
B4: V55R (designed binder)
chain: MTLQELLREEALRRAEAEAFRYALELLAEKFPEQKEYLLDLAEEIESQIRSLSGRDVEDVRKFLDKEWAWVKELLAEHPAELAEVEAARAARLAELRAEVEAKVAA
B5: V57T (designed binder)
chain: MTLQELLREEALRRAEAEAFRYALELLAEKFPEQKEYLLDLAEEIESQIRSLSGVDTEDVRKFLDKEWAWVKELLAEHPAELAEVEAARAARLAELRAEVEAKVAA
B6: A91N (designed binder)
chain: MTLQELLREEALRRAEAEAFRYALELLAEKFPEQKEYLLDLAEEIESQIRSLSGVDVEDVRKFLDKEWAWVKELLAEHPAELAEVEAARANRLAELRAEVEAKVAA
B7: E67A (designed binder)
chain: MTLQELLREEALRRAEAEAFRYALELLAEKFPEQKEYLLDLAEEIESQIRSLSGVDVEDVRKFLDKAWAWVKELLAEHPAELAEVEAARAARLAELRAEVEAKVAA
B8: V57C (designed binder)
chain: MTLQELLREEALRRAEAEAFRYALELLAEKFPEQKEYLLDLAEEIESQIRSLSGVDCEDVRKFLDKEWAWVKELLAEHPAELAEVEAARAARLAELRAEVEAKVAA
B9: L39T (designed binder)
chain: MTLQELLREEALRRAEAEAFRYALELLAEKFPEQKEYLTDLAEEIESQIRSLSGVDVEDVRKFLDKEWAWVKELLAEHPAELAEVEAARAARLAELRAEVEAKVAA
B10: I45P (designed binder)
chain: MTLQELLREEALRRAEAEAFRYALELLAEKFPEQKEYLLDLAEEPESQIRSLSGVDVEDVRKFLDKEWAWVKELLAEHPAELAEVEAARAARLAELRAEVEAKVAA
B11: W70V (designed binder)
chain: MTLQELLREEALRRAEAEAFRYALELLAEKFPEQKEYLLDLAEEIESQIRSLSGVDVEDVRKFLDKEWAVVKELLAEHPAELAEVEAARAARLAELRAEVEAKVAA
B12: M1H (designed binder)
chain: HTLQELLREEALRRAEAEAFRYALELLAEKFPEQKEYLLDLAEEIESQIRSLSGVDVEDVRKFLDKEWAWVKELLAEHPAELAEVEAARAARLAELRAEVEAKVAA
B13: D56I (designed binder)
chain: MTLQELLREEALRRAEAEAFRYALELLAEKFPEQKEYLLDLAEEIESQIRSLSGVIVEDVRKFLDKEWAWVKELLAEHPAELAEVEAARAARLAELRAEVEAKVAA
B14: E58G (designed binder)
chain: MTLQELLREEALRRAEAEAFRYALELLAEKFPEQKEYLLDLAEEIESQIRSLSGVDVGDVRKFLDKEWAWVKELLAEHPAELAEVEAARAARLAELRAEVEAKVAA
B15: L3D (designed binder)
chain: MTDQELLREEALRRAEAEAFRYALELLAEKFPEQKEYLLDLAEEIESQIRSLSGVDVEDVRKFLDKEWAWVKELLAEHPAELAEVEAARAARLAELRAEVEAKVAA
B16: L24C (designed binder)
chain: MTLQELLREEALRRAEAEAFRYACELLAEKFPEQKEYLLDLAEEIESQIRSLSGVDVEDVRKFLDKEWAWVKELLAEHPAELAEVEAARAARLAELRAEVEAKVAA
B17: A98C (designed binder)
chain: MTLQELLREEALRRAEAEAFRYALELLAEKFPEQKEYLLDLAEEIESQIRSLSGVDVEDVRKFLDKEWAWVKELLAEHPAELAEVEAARAARLAELRCEVEAKVAA
B18: E5V (designed binder)
chain: MTLQVLLREEALRRAEAEAFRYALELLAEKFPEQKEYLLDLAEEIESQIRSLSGVDVEDVRKFLDKEWAWVKELLAEHPAELAEVEAARAARLAELRAEVEAKVAA
B19: L12Q (designed binder)
chain: MTLQELLREEAQRRAEAEAFRYALELLAEKFPEQKEYLLDLAEEIESQIRSLSGVDVEDVRKFLDKEWAWVKELLAEHPAELAEVEAARAARLAELRAEVEAKVAA
B20: E73S (designed binder)
chain: MTLQELLREEALRRAEAEAFRYALELLAEKFPEQKEYLLDLAEEIESQIRSLSGVDVEDVRKFLDKEWAWVKSLLAEHPAELAEVEAARAARLAELRAEVEAKVAA
B21: W68Q (designed binder)
chain: MTLQELLREEALRRAEAEAFRYALELLAEKFPEQKEYLLDLAEEIESQIRSLSGVDVEDVRKFLDKEQAWVKELLAEHPAELAEVEAARAARLAELRAEVEAKVAA
B22: A19P (designed binder)
chain: MTLQELLREEALRRAEAEPFRYALELLAEKFPEQKEYLLDLAEEIESQIRSLSGVDVEDVRKFLDKEWAWVKELLAEHPAELAEVEAARAARLAELRAEVEAKVAA
B23: A90D (designed binder)
chain: MTLQELLREEALRRAEAEAFRYALELLAEKFPEQKEYLLDLAEEIESQIRSLSGVDVEDVRKFLDKEWAWVKELLAEHPAELAEVEAARDARLAELRAEVEAKVAA
B24: E67I (designed binder)
chain: MTLQELLREEALRRAEAEAFRYALELLAEKFPEQKEYLLDLAEEIESQIRSLSGVDVEDVRKFLDKIWAWVKELLAEHPAELAEVEAARAARLAELRAEVEAKVAA
B25: D59C (designed binder)
chain: MTLQELLREEALRRAEAEAFRYALELLAEKFPEQKEYLLDLAEEIESQIRSLSGVDVECVRKFLDKEWAWVKELLAEHPAELAEVEAARAARLAELRAEVEAKVAA
B26: W70S (designed binder)
chain: MTLQELLREEALRRAEAEAFRYALELLAEKFPEQKEYLLDLAEEIESQIRSLSGVDVEDVRKFLDKEWASVKELLAEHPAELAEVEAARAARLAELRAEVEAKVAA
B27: G54L (designed binder)
chain: MTLQELLREEALRRAEAEAFRYALELLAEKFPEQKEYLLDLAEEIESQIRSLSLVDVEDVRKFLDKEWAWVKELLAEHPAELAEVEAARAARLAELRAEVEAKVAA
B28: D56Y (designed binder)
chain: MTLQELLREEALRRAEAEAFRYALELLAEKFPEQKEYLLDLAEEIESQIRSLSGVYVEDVRKFLDKEWAWVKELLAEHPAELAEVEAARAARLAELRAEVEAKVAA
B29: E10C (designed binder)
chain: MTLQELLRECALRRAEAEAFRYALELLAEKFPEQKEYLLDLAEEIESQIRSLSGVDVEDVRKFLDKEWAWVKELLAEHPAELAEVEAARAARLAELRAEVEAKVAA
B30: A11C (designed binder)
chain: MTLQELLREECLRRAEAEAFRYALELLAEKFPEQKEYLLDLAEEIESQIRSLSGVDVEDVRKFLDKEWAWVKELLAEHPAELAEVEAARAARLAELRAEVEAKVAA
B31: D40A (designed binder)
chain: MTLQELLREEALRRAEAEAFRYALELLAEKFPEQKEYLLALAEEIESQIRSLSGVDVEDVRKFLDKEWAWVKELLAEHPAELAEVEAARAARLAELRAEVEAKVAA
B32: G54E (designed binder)
chain: MTLQELLREEALRRAEAEAFRYALELLAEKFPEQKEYLLDLAEEIESQIRSLSEVDVEDVRKFLDKEWAWVKELLAEHPAELAEVEAARAARLAELRAEVEAKVAA
B33: L74S (designed binder)
chain: MTLQELLREEALRRAEAEAFRYALELLAEKFPEQKEYLLDLAEEIESQIRSLSGVDVEDVRKFLDKEWAWVKESLAEHPAELAEVEAARAARLAELRAEVEAKVAA
B34: E16A (designed binder)
chain: MTLQELLREEALRRAAAEAFRYALELLAEKFPEQKEYLLDLAEEIESQIRSLSGVDVEDVRKFLDKEWAWVKELLAEHPAELAEVEAARAARLAELRAEVEAKVAA

The values that follow come from article PMC12416549 (2024).

The experiment concerns the target T1, TNFR1 (Homo sapiens, UniProt P19438).
T1 chain: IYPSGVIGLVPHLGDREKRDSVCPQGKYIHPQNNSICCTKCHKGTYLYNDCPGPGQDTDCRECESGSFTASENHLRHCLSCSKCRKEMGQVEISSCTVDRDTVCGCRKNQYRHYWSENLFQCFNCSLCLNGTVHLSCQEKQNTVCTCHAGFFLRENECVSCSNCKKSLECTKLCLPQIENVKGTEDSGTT
The experiment is described as follows: yeast display SC50.
Take B1: the “apparent Kd (screen)” value was 653 pM.
The value for B2 was 2250 pM; that for B3 was 593 pM; that for B4 was 2480 pM.
In the case of B5, the “apparent Kd (screen)” value is 1050 pM.
Turning to B6, the “apparent Kd (screen)” value came to 593 pM.
Under B7 stands 12500 pM; under B8, 539 pM.
On to B9, for which the “apparent Kd (screen)” value came out at 2050 pM.
Consider B10, for which the “apparent Kd (screen)” value came to 229 pM.
Turning to B11, the “apparent Kd (screen)” value turned out to be 20200 pM.
Under B12 stands 539 pM; under B13, 2730 pM; under B14, 490 pM.
Regarding B15, the “apparent Kd (screen)” value was found to be 718 pM.
In the case of B16, the “apparent Kd (screen)” value stood at 593 pM.
Regarding B17, the “apparent Kd (screen)” value worked out at 490 pM.
The value for B18 was 593 pM; that for B19 was 790 pM; that for B20 was 539 pM.
The value for B21 was 5310 pM; that for B22 was 9410 pM; that for B23 was 446 pM.
With B24, the “apparent Kd (screen)” value was determined as 6430 pM.
On to B25, for which the “apparent Kd (screen)” value was found to be 13800 pM.
For the molecule B26, the “apparent Kd (screen)” value was 12500 pM.
Turning to B27, the “apparent Kd (screen)” value turned out to be 16700 pM.
In the case of B28, the “apparent Kd (screen)” value was 2250 pM.
Under B29 stands 16700 pM; under B30, 405 pM; under B31, 539 pM.
B32: the “apparent Kd (screen)” value amounted to 26900 pM.
In the case of B33, the “apparent Kd (screen)” value stood at 2250 pM.
Regarding B34, the “apparent Kd (screen)” value came to 539 pM.
